What was measured:
[1] = target: the molecule itself; experiment: SEC-MALS
[2] = target: the molecule itself; experiment: AUC

B1: TRIM21 coiled-coil (T21CC235; residues 129-235) (domain or fragment, UniProt P19474 129-235, looked up)
chain: EEAAQEYQEKLQVALGELRRKQELAEKLEVEIAIKRADWKKTVETQKSRIHAEFVQQKNFLVEEEQRQLQELEKDEREQLRILGEKEAKLAQQSQALQELISELDRR
stoichiometry N [1]: 2

B2: TRIM21 RING-Box-Coiled-Coil (T21RBCC; residues 1-235) (domain or fragment, UniProt P19474 1-235, looked up)
chain: MASAARLTMMWEEVTCPICLDPFVEPVSIECGHSFCQECISQVGKGGGSVCPVCRQRFLLKNLRPNRQLANMVNNLKEISQEAREGTQGERCAVHGERLHLFCEKDGKALCWVCAQSRKHRDHAMVPLEEAAQEYQEKLQVALGELRRKQELAEKLEVEIAIKRADWKKTVETQKSRIHAEFVQQKNFLVEEEQRQLQELEKDEREQLRILGEKEAKLAQQSQALQELISELDRR
binding result [2]: binds

— PMC7611929 (Nature structural & molecular biology, 2021)
